Five sequences from the supplement of paper PMC5998384 can be followed below.

Data set [1] has as its system HeLa Kyoto. Kind of data set: melting temperature (median over replicates), in situ; higher = more thermally stable.
For data set [2], the system named is HeLa Kyoto. Description: solubility change mitosis vs G1/S (difference of NP-40 vs SDS log2 ratios) (log2 ratio difference); higher = more soluble in mitosis.
The test system of data set [3] is HeLa Kyoto. Kind of data set: thermal stability score vs G1/S (z-score of summed log2 fold changes over temperatures); higher = more thermally stable than in G1/S.
Data set [4] has as its system HeLa Kyoto. Kind of data set: solubility in G1/S (NP-40 vs SDS abundance) (log2 ratio); higher = more soluble. To be noted: cell cycle stage: G1/S.
Setting [5] is: cell cycle stage: early G1 (4.5 h after nocodazole release).
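For melting temperature (median over replicates), in situ in this document: HeLa Kyoto cells synchronized by double thymidine or nocodazole block, proteins quantified by TMT10plex mass spectrometry, three independent biological replicates.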
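For solubility change mitosis vs G1/S (difference of NP-40 vs SDS log2 ratios) in this document: synchronized HeLa Kyoto cells (double thymidine block for G1/S, nocodazole release for mitosis), protein amounts in NP-40 versus SDS lysates quantified by mass spectrometry, three biological replicates.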
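For solubility in G1/S (NP-40 vs SDS abundance) in this document: HeLa Kyoto cells arrested at G1/S by double thymidine block, proteins quantified by TMT10plex mass spectrometry in mild NP-40 versus SDS extracts, three biological replicates.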
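For thermal stability score vs G1/S (z-score of summed log2 fold changes over temperatures) in this document: synchronized HeLa Kyoto cells, proteins quantified by TMT10plex mass spectrometry, three biological replicates, mitosis taken 0.5 h after nocodazole release, G1/S directly after double thymidine block.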

In the case of “MATAAETSASEPEAESKAGPKADGEEDEVKAARTRRKVLSRAVAAATYKTMGPAWDQQEEGVSESDGDEYAMASSAESSPGEYEWEYDEEEEKNQLEIERLEEQLSINVYDYNCHVDLIRLLRLEGELTKVRMARQKMSEIFPLTEELWLEWLHDEISMAQDGLDREHVYDLFEKAVKDYICPNIWLEYGQYSVGGIGQKGGLEKVRSVFERALSSVGLHMTKGLALWEAYREFESAIVEAARLEKVHSLFRRQLAIPLYDMEATFAEYEEWSEDPIPESVIQNYNKALQQLEKYKPYEEALLQAEAPRLAEYQAYIDFEMKIGDPARIQLIFERALVENCLVPDLWIRYSQYLDRQLKVKDLVLSVHNRAIRNCPWTVALWSRYLLAMERHGVDHQVISVTFEKALNAGFIQATDYVEIWQAYLDYLRRRVDFKQDSSKELEELRAAFTRALEYLKQEVEERFNESGDPSCVIMQNWARIEARLCNNMQKARELWDSIMTRGNAKYANMWLEYYNLERAHGDTQHCRKALHRAVQCTSDYPEHVCEVLLTMERTEGSLEDWDIAVQKTETRLARVNEQRMKAAEKEAALVQQEEEKAEQRKRARAEKKALKKKKKIRGPEKRGADEDDEKEWGDDEEEQPSKRRRVENSIPAAGETQNVEVAAGPAGKCAAVDVEPPSKQKEKAASLKRDMPKVLHDSSKDSITVFVSNLPYSMQEPDTKLRPLFEACGEVVQIRPIFSNRGDFRGYCYVEFKEEKSALQALEMDRKSVEGRPMFVSPCVDKSKNPDFKVFRYSTSLEKHKLFISGLPFSCTKEELEEICKAHGTVKDLRLVTNRAGKPKGLAYVEYENESQASQAVMKMDGMTIKENIIKVAISNPPQRKVPEKPETRKAPGGPMLLPQTYGARGKGRTQLSLLPRALQRPSAAAPQAENGPAAAPAVAAPAATEAPKMSNADFAKLFLRK [SART3]”, the melting temperature was 48.2 °C in the data set with HeLa Kyoto [1] (cell cycle stage: G1/S) and 49.2 °C in the data set on HeLa Kyoto [1] (cell cycle stage: mitosis). The “solubility change mitosis (log2)” value in the data set on HeLa Kyoto [2] is -0.103. Moreover, the thermal stability score with HeLa Kyoto [3] (setting [5]) is 1.98; with HeLa Kyoto [3] (cell cycle stage: mitosis) it was 4.74. Also, the “solubility in G1/S (log2)” value with HeLa Kyoto [4] was -0.112.
“MATAALLRGATPGRGGPVWRWRLRAAPRCRLAHSSCSPGGDPTAGAAWACFRLDGRTLLRVRGPDAAPFLLGLLTNELPLPSPAAAGAPPAARAGYAHFLNVQGRTLYDVILYGLQEHSEVSGFLLECDSSVQGALQKHLALYRIRRKVTVEPHPELRVWAVLPSSPEACGAASLQERAGAAAILIRDPRTARMGWRLLTQDEGPALVPGGRLGDLWDYHQHRYLQGVPEGVRDLPPGVALPLESNLAFMNGVSFTKGCYIGQELTARTHHMGVIRKRLFPVRFLDPLPTSGITPGATVLTASGQTVGKFRAGQGNVGLALLWSEKIKGPLHIRASEGAQVALAASVPDWWPTVSK [IBA57]”: the melting temperature in the data set on HeLa Kyoto [1] (cell cycle stage: G1/S) stood at 52.8 °C; in the data set on HeLa Kyoto [1] (cell cycle stage: mitosis), 52.4 °C. For the same sequence, the “solubility change mitosis (log2)” value with HeLa Kyoto [2] was determined as 0.132. The thermal stability score with HeLa Kyoto [3] (setting [5]) was 0.0549; with HeLa Kyoto [3] (cell cycle stage: mitosis), -0.552. For the same sequence, in the data set with HeLa Kyoto [4], the “solubility in G1/S (log2)” value was -0.246.
Turning to “MATALALRSLYRARPSLRCPPVELPWAPRRGHRLSPADDELYQRTRISLLQREAAQAMYIDSYNSRGFMINGNRVLGPCALLPHSVVQWNVGSHQDITEDSFSLFWLLEPRIEIVVVGTGDRTERLQSQVLQAMRQRGIAVEVQDTPNACATFNFLCHEGRVTGAALIPPPGGTSLTSLGQAAQ [NDUFAF3]”, the melting temperature in the data set with HeLa Kyoto [1] (cell cycle stage: G1/S) worked out at 53.4 °C; in the data set on HeLa Kyoto [1] (cell cycle stage: mitosis) it was 53.5 °C. Also, in the data set on HeLa Kyoto [2], the “solubility change mitosis (log2)” value was -0.0203. In addition, the thermal stability score with HeLa Kyoto [3] (setting [5]) is -0.2; in the data set with HeLa Kyoto [3] (cell cycle stage: mitosis), -2.08. In addition, the “solubility in G1/S (log2)” value in the data set with HeLa Kyoto [4] was determined as 0.117.
As to “MATALSEEELDNEDYYSLLNVRREASSEELKAAYRRLCMLYHPDKHRDPELKSQAERLFNLVHQAYEVLSDPQTRAIYDIYGKRGLEMEGWEVVERRRTPAEIREEFERLQREREERRLQQRTNPKGTISVGVDATDLFDRYDEEYEDVSGSSFPQIEINKMHISQSIEAPLTATDTAILSGSLSTQNGNGGGSINFALRRVTSAKGWGELEFGAGDLQGPLFGLKLFRNLTPRCFVTTNCALQFSSRGIRPGLTTVLARNLDKNTVGYLQWRWGIQSAMNTSIVRDTKTSHFTVALQLGIPHSFALISYQHKFQDDDQTRVKGSLKAGFFGTVVEYGAERKISRHSVLGAAVSVGVPQGVSLKVKLNRASQTYFFPIHLTDQLLPSAMFYATVGPLVVYFAMHRLIIKPYLRAQKEKELEKQRESAATDVLQKKQEAESAVRLMQESVRRIIEAEESRMGLIIVNAWYGKFVNDKSRKSEKVKVIDVTVPLQCLVKDSKLILTEASKAGLPGFYDPCVGEEKNLKVLYQFRGVLHQVMVLDSEALRIPKQSHRIDTDG [DNAJC11]”, the melting temperature with HeLa Kyoto [1] (cell cycle stage: G1/S) is 52.6 °C; with HeLa Kyoto [1] (cell cycle stage: mitosis) it was 52.3 °C. Besides, the “solubility change mitosis (log2)” value in the data set on HeLa Kyoto [2] was -0.0355. Moreover, the thermal stability score in the data set with HeLa Kyoto [3] (setting [5]) was 0.0819; in the data set on HeLa Kyoto [3] (cell cycle stage: mitosis), -0.993. The “solubility in G1/S (log2)” value in the data set with HeLa Kyoto [4] was -0.172.
Sequence “MATASPAADGGRGRPWEGGLVSWPPAPPLTLPWTWMGPSWGQHPGHWGFPALTEPSASPAAGLGIFEVRRVLDASGCSMLAPLQTGAARFSSYLLSRARKVLGSHLFSPCGVPEFCSISTRKLAAHGFGASMAAMVSFPPQRYHYFLVLDFEATCDKPQIHPQEIIEFPILKLNGRTMEIESTFHMYVQPVVHPQLTPFCTELTGIIQAMVDGQPSLQQVLERVDEWMAKEGLLDPNVKSIFVTCGDWDLKVMLPGQCQYLGLPVADYFKQWINLKKAYSFAMGCWPKNGLLDMNKGLSLQHIGRPHSGIDDCKNIANIMKTLAYRGFIFKQTSKPF [ERI3]” came in with a melting temperature in the data set on HeLa Kyoto [1] (cell cycle stage: mitosis) of 54.7 °C. Moreover, the “solubility change mitosis (log2)” value in the data set with HeLa Kyoto [2] is -0.0837. Besides, the figures for the thermal stability score in the data set on HeLa Kyoto [3] (setting [5]) and in the data set with HeLa Kyoto [3] (cell cycle stage: mitosis) were 0.384 and -0.0416, respectively. Besides, in the data set with HeLa Kyoto [4], the “solubility in G1/S (log2)” value is 0.0291.
